Laboratory results published in patent US20220356229A1 (published 2022).
Read-outs that look alike come from different tables or passages of the source.

Legend:
[1] = molecular target: SARS-CoV-2 Spike protein, wild type, full length (SARS-CoV-2, UniProt P0DTC2 14-1208)
[2] = molecular target: SARS-CoV-2 Spike protein (wild type) (SARS-CoV-2, UniProt P0DTC2 14-1208)
[3] = molecular target: SARS-CoV-2 Spike protein (wild type) (SARS-CoV-2, UniProt P0DTC2 14-1208); experiment: SPR (Carterra LSA), mAb coupled to HC30M chip, Spike titrated; Example 4 methods
[4] = molecular target: SARS-CoV-2 Spike protein on pseudotyped lentivirus (SARS-CoV-2, UniProt P0DTC2 14-1273); experiment: cell-based or functional assay
[5] = molecular target: Spike protein of authentic SARS-CoV-2/MT020880.1 (live virus) (SARS-CoV-2, UniProt P0DTC2 14-1273); experiment: cell-based or functional assay
[6] = molecular target: Spike protein of SARS-CoV-2 hCoV-19/Canada/ON_ON-VIDO-01-2/202 (live virus) (SARS-CoV-2, UniProt P0DTC2 14-1273); experiment: cell-based or functional assay
[7] = molecular target: SARS-CoV-2 full length Spike protein, wild type, expressed on the surface of transiently transfected CHO cells (SARS-CoV-2, UniProt P0DTC2 14-1273)
[8] = molecular target: SARS-CoV-2 Spike (S) protein, wild type, full length (SARS-CoV-2, UniProt P0DTC2 14-1273)

B1: antibody 474 (antibody, V domains shown)
VH: EVQLVESGGGLVQPGGSLRLSCAASGFTFSSYWMHWVRQAPGKGLVWVSRINSDGSSTSYADSVKGRFTISRDNAKNTLYRQMNSLRAEDTAVYYCALGPLDIVGSYYYYGMDVWGQGTTVTVSS
VL: NFMLTQPHSVSESPGKTVTISCTGSSGSIASNYVQWYQQRPGSAPTTVIYEDNQRPSGVPDRFSGSIDSSSNSASLTISGLKTEDEADYYCQSYDSSNQDVVFGGGTKLTVL
binding signal (fold over isotype control) [1]: 1.47 fold over isotype

B2: anti-SARS-CoV-2 antibody 307 (antibody, V domains shown)
VH: QVQLVESGGGVVQPGRSLRLSCAASGFTFSSYGMHWVRQAPGKGLEWVAVIWYDGSNKYYADSVKGRFTISRDNSKNTLYLQMNSLRAEDTAVYYCAKGYTWDYYYYGMDVWGQGTTVTVSS
VL: not shown
kon [2]: 101000 M⁻¹ s⁻¹

B3: anti-SARS-CoV-2 antibody 1118 (antibody, V domains shown)
VH: QVQLVESGGGVVQPGRSLRLSCAASGFTFSTYAMHWVRQAPGKGLEWVAVISYDGSNKYYSDSVKGRFTISRDNSKNTLYLQMNSLRAEDTAVYYCARAHTSGWPLGDYFDYWGQGTLVTVSS
VL: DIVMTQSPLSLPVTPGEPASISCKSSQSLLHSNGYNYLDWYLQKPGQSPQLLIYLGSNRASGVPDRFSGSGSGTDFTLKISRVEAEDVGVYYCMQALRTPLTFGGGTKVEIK
Kd [3]: 0.223 nM
Pseudo-neutralization IC50 [4]: 0.026 µg/mL

B4: anti-SARS-CoV-2 antibody 1075 (antibody, V domains shown)
VH: QVQLVQSGAEVKKPGASVKVSCKVSGYTLIELSMHWVRQAPGKGLEWMGGFDPEDGETIYAQKFQGRVTMTEDTSTDTAYMELSSLRSEDTAVYYCATEWAYYGSGSYLGYWGQGTLVTVSS
VL: EIVMTQSPATLSVSPGERATLSCRASQSVSSNLAWFQQKPGQAPRLLIYGASTRVTVIPARFSGSGSGTEFTLTISSLQSEDFAVYYCQQYNNWPRTFGQGTKVEIKR
IC50 (ng/mL), immunofluorescence neutralization assay [5]: 89.6 ng/mL
IC50 (µg/mL), plaque reduction neutralization test [6]: 0.409 µg/mL

B5: antibody 576 (antibody, V domains shown)
VH: QVQLVESGGGVVQPGRSLRLSCAASGFTFSSYAMHWVRQAPGKGLEWVAVISYDGSNKYYADSVKGRFTISRDNSKNTLYLQMNSLRAEDTAVYYCAKAGGGSYYRGFDYWGQGTLVTVSS
VL: DIQLTQSPSFLSASVGDRVTITCRASQGISSYLAWYQQKPGKAPKLLIYAASTLQSGVPSRFSGSGSGTEFTLTISSLQPEDFATYYCQQLNSYPTFGPGTKVDIK
median fluorescence intensity, fold over isotype control [7]: 8.75 fold over isotype

B6: anti-SARS-CoV-2 antibody 1098 (antibody, V domains shown)
VH: EVQLLESGGGLVQPGGSLRLSCAASGFTFNSYAMSWVRQAPGKGLEWVSAISGSGGSTYYADSVKGRFSISRDNAKNTLFLQMNSLRAEDTAVYYCARSGGNFDYWGQGTLVTVSL
VL: SYELTQPPSVSVSPGQTARITCSGDVLAKRYVYWYQQKPGQAPVLVIYRDSERPSGIPERFSGSSSGTTVTLTISGVQAVDEADYYCQSADSSGTLYVFGTGTKVTVL
Kd [3]: 0.173 nM
Pseudo-neutralization IC50 [4]: 0.087 µg/mL

B7: antibody 377 (antibody, V domains shown)
VH: EVQLVESGGGLVKPGGSLRLSCATSGFTFRTYSMNWVRQAPGKGLEWVSSITTSRNYIYYADSVRGRFTISGDNANNSLYLQMNSLRAEDTAVYYCARVRFVRDTRKPYYFDFWGQGTLVTVSS
VL: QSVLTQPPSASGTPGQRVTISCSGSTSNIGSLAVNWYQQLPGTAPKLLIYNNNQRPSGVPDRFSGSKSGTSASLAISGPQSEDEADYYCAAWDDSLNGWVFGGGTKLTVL
fold over isotype (median fluorescence intensity) [8]: 0.78 fold over isotype

B8: anti-SARS-CoV-2 antibody 278 (antibody, V domains shown)
VH: QVQLVQSGAEVKKPGASVKVSCKASGYTFTSYYMHWVRQAPGQGLEWMGIINPSGGSTSYAQKFQGRVTMTRDTSTSTVYMELSSLRSEDTAVYYCARDHSNADPYYDFWSGYYTRTYYYGMDVWGQGTTVTVSS
VL: not shown
Kd [2]: 4.28 nM

B9: antibody 577 (antibody, V domains shown)
VH: QLPLQESGPGLVKPSETLSLTCTVSGGSISSSSYYWGWIRQPPGKGLEWIGSIYYSGSTFYNPSLKSRVTISGDTSKNQFSLKVTSVTAADTAVYYCARGSGSSGWYAFDIWGQGTMVTVSS
VL: QSALTQPASVSGSPGQSITISCTGTSSDFGGYNYVSWYQQHPDKAPKLMIYDVSNRPSGVSNRFSGSKSGNTASLTISGLQAEDEADYYCSSYTTSSTWVFGGGTKLTVL
median fluorescence intensity, fold over isotype control [7]: 1.14 fold over isotype
